For assay [1], the target named is T1, ErbB-4 co-expressed with ErbB-2 (Homo sapiens, UniProt Q15303).
T1 construct: expressed in transfected cells; host or cells: CHO (Chinese Hamster Ovary) cells, transient co-transfection
Put plainly: Covalent crosslinking to CHO cells co-transfected with ErbB-4 and ErbB-2. The following applies: precipitation with anti-ErbB-2 antibodies. The format is binding. As for the experimental part: CHO cells were transfected with vectors directing expression of the indicated ErbB proteins or their combinations. Two days later cell monolayers were incubated with either ^125I-NRG-1β or ^125I-NRG-4 (EGF-like domains, each at 100 ng/ml). Following 2 hours at 4° C., the covalent crosslinking reagent bis(sulfosuccinimdyl)-suberate (BS^3) was added (1 mM final concentration) and cell extracts prepared after an additional 45 minutes of incubation. The indicated ErbB proteins were then immunoprecipitated with mouse monoclonal antibodies, and the complexes resolved by gel electrophoresis and autoradiography. Arrows mark the locations of monomeric (M) and dimeric (D) receptor complexes.
Growth factors were labeled with Iodogen (Pierce) as described (Karunagaran et al., 1995). Chemical crosslinking to Chinese Hamster Ovary (CHO) cells engineered to express different ErbB combinations have been performed essentially as described (Tzahar et al., 1996). Briefly, radiolabeled ligands (at 100 ng/ml) were incubated for 2 hours with cell monolayers at 4 C. […] Non-specific binding was determined in the presence of a 100-fold molar excess of the unlabeled ligani. Cells were then washed, lysed in a solution containing 0.1 M NaOH and 0.1% SDS, and radioactivity determined by use of a gamma counter. […]

Assay [2] has as its system D24 cells (32D co-expressing ErbB-4 and ErbB-2). Put plainly: Long-term cell survival assay in the absence of IL-3 (MTT). It is filed as cell-based. Conditions: ligand 100 ng/ml, MTT daily. As for the experimental part: (§1) FIG. 3b show survival effect of NRG-4 on ErbB-expressing derivatives of 32D cells. The indicated derivatives of 32D cells were incubated for various time intervals in the absence of IL-3. […] For control, cells were incubated with medium conditioned by IL-3-producing cells (open triangles), or with no factor (open circles). The extent of cell proliferation was determined daily by using the calorimetric MTT assay. The data presented are the mean±S.D. of 4 determinations. Note that co-expression of ErbB-1 and ErbB-2 (D12 cells) enabled cell survival in the absence of IL-3. The experiment was repeated twice with similar results.
(§2) The establishment of a series of interleukin 3 (IL-3)-dependent 32D myeloid cells expressing all combinations of ErbB proteins has been described (Alimandi et al., 1997; Pinkas-Kramarski et al., 1996; Shelly et al., 1998). Cells were maintained in RPMI medium with 10% fetal bovine serum (FBS) and dilute IL3-containing conditioned medium. […] Cell survival was determined 24 hours later, or after the indicated time intervals, by MTT assay, as previously described (Mosman, 1983). MTT (0.05 mg/ml) was incubated with the analyzed cells for 2 hours at 37 C. Living cells can transform the tetrazolium ring into dark blue formazan crystals, that can be quantified by reading the optical density at 540-630 nm after lysis of the cells with acidic isopropanol. […]

The test system of assay [3] is D4 cells (32D expressing ErbB-4). The assay is described as above. It is filed as cell-based. Conditions: ligand 100 ng/ml, MTT daily. As for the experimental part: as §1, §2

B1: NRG-4: synthetic refolded mouse EGF-like domain of NRG-4 (residues 4 to 50, SEQ ID NO:2) (peptide, listed as Mus musculus)
chain: MPTDHEQPCGPRHRSFCLNGGICYVIPTIPSPFCRCIENYTGARCEEVFLPSSSIPSESNLSAAFVVLAVLLTLTIAALCFLCRKGHLQRASSVQCEISLVETNNTRTRHSHREH
B1: the “heterodimers of ErbB-4 with ErbB-2” value in assay [1] was “existence of NRG-4-promoted heterodimers”. Further, the “survival of D24 cells in the absence of IL-3” value in assay [2] is “more robust, and akin to the NRG-1-treated controls”. Besides, in assay [3], the “survival of D4 cells in the absence of IL-3” value is “stimulated the survival”.

The values are drawn from patent publication US7981997B2, “Growth factor which acts through ErbB-4 RTK” (Yeda Research And Development Co., priority 2000, dated 2011).
